From patent publication WO2020219978A1 (dated 2020) come the findings set out here.

The target in assay [1] is T1, CD3 on Jurkat cells (human, UniProt P07766 23-207).
T1 construct: also called CD3 on T cell lines
The experiment in a line: flow cytometry on Jurkat cells. In general terms: In flow cytometry, cells or beads pass a laser one at a time.

Assay [2] has as its target T1, CD3 on Jurkat cells. The experiment in a line: flow cytometry on Jurkat cells, second study.
The target of assay [3] is T2, human BCMA (hu-BCMA), as used in SPR (human, UniProt Q02223 1-54).
T2 construct: The construct used in SPR is not described; also called B cell maturation antigen; TNFRSF17
T2 sequence: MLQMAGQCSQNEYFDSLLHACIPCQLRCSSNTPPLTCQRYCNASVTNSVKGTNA
The experiment in a line: not stated (description).

Assay [4] concerns the target human CD3 epsilon (CD3ɛ), form of the assay not stated (human, UniProt P07766 23-126, limits assumed). Description: not stated (description).
Assay [5] addresses T3, human cluster of differentiation 3 epsilon/delta heterodimer (CD3ed) (human, UniProt P04234 22-105).
T3 construct: also called human CD3ed heterodimer
The experiment in a line: SPR (n = 3 by paragraph 97).

Assay [6] has as its target T2, human BCMA (hu-BCMA), as used in SPR. Description: SPR. In general terms: SPR reads the build-up and loss of mass on a sensor chip optically.
For assay [7], the target named is T4, human BCMA on cells (NCI-H929, L363, JJN-3, RPMI-8226, U266 myeloma cell lines; HEK293T-huBCMA) (human, UniProt Q02223 1-184).
T4 construct: also called BCMA on myeloma cell lines
T4 sequence: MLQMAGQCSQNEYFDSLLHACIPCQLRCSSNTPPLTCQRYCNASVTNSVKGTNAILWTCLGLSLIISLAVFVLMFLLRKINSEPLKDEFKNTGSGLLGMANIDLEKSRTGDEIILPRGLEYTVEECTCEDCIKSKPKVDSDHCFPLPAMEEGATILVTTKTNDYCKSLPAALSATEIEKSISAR
Description: flow cytometry on NCI-H929 MM cells, 3 lots.

Assay [8] addresses T2, human BCMA (hu-BCMA), as used in SPR. The experiment in a line: SPR, mean (n = 3 by paragraph 97).
The target of a further assay is T5, mouse BCMA (mouse, UniProt O88472 1-49, limits assumed).
T5 construct: also called rodent BCMA
T5 chain (looked up): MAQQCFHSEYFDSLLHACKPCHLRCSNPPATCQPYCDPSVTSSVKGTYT
Description: SPR.

The target in a further assay is T6, BCMA/Fc (human, UniProt Q02223 1-54).
T6 construct: not shown: Fc part not described
T6 sequence: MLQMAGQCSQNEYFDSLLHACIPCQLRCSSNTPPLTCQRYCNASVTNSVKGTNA
Description: flow cytometry blocking experiment on U266 cells; soluble BCMA/Fc against BCMA on the cells.

T1 sequence (P07766 23-207 limits assumed): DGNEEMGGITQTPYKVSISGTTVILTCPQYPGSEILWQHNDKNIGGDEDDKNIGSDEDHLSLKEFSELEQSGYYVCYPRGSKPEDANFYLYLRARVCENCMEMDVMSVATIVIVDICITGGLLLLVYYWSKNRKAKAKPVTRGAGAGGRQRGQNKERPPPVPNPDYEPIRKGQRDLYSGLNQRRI
Chain of human CD3 epsilon (CD3ɛ), form of the assay not stated (P07766 23-126 limits assumed): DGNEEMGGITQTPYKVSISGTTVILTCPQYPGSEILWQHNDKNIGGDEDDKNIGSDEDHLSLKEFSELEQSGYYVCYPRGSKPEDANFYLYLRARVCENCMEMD
T3 sequence (chain, as listed by the source mutant, chain 1 of 2): as the sequence (P07766 23-126 limits assumed) above
T3 sequence (P04234 22-105, stated change not applied, chain 2 of 2): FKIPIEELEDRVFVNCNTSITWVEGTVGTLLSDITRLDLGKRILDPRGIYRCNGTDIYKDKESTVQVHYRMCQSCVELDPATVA

B1: CC-93269, bispecific trivalent anti-BCMA/anti-CD3 T cell engaging antibody (TCE) (bispecific antibody, human IgG1, kappa, L234A L235A)
heavy 1: not shown
heavy 2: EVQLLESGGGLVQPGGSLRLSCAASGFTFSDNAMGWVRQAPGKGLEWVSAISGPGSSTYYADSVKGRFTISRDNSKNTLYLQMNSLRAEDTAVYYCAKVLGWFDYWGQGTLVTVSSASTKGPSVFPLAPSSKSTSGGTAALGCLVEDYFPEPVTVSWNSGALTSGVHTFPAVLQSSGLYSLSSVVTVPSSSLGTQTYICNVNHKPSNTKVDEKVEPKSCDKTHTCPPCPAPEAAGGPSVFLFPPKPKDTLMISRTPEVTCVVVDVSHEDPEVKFNWYVDGVEVHNAKTKPREEQYNSTYRVVSVLTVLHQDWLNGKEYKCKVSNKALGAPIEKTISKAKGQPREPQVCTLPPSRDELTKNQVSLSCAVKGFYPSDIAVEWESNGQPENNYKTTPPVLDSDGSFFLVSKLTVDKSRWQQGNVFSCSVMHEALHNHYTQKSLSLSPGK
light 1: EVQLLESGGGLVQPGGSLRLSCAASGFTFSTYAMNWVRQAPGKGLEWVSRIRSKYNNYATYYADSVKGRFTISRDDSKNTLYLQMNSLRAEDTAVYYCVRHGNFGNSYVSWFAYWGQGTLVTVSSASVAAPSVFIFPPSDEQLKSGTASVVCLLNNFYPREAKVQWKVDNALQSGNSQESVTEQDSKDSTYSLSSTLTLSKADYEKHKVYACEVTHQGLSSPVTKSFNRGEC
light 2: EIVLTQSPGTLSLSPGERATLSCRASQSVSDEYLSWYQQKPGQAPRLLIHSASTRATGIPDRFSGSGSGTDFTLAISRLEPEDFAVYYCQQYGYPPDFTFGQGTKVEIKRTVAAPSVFIFPPSDRKLKSGTASVVCLLNNFYPREAKVQWKVDNALQSGNSQESVTEQDSKDSTYSLSSTLTLSKADYEKHKVYACEVTHQGLSSPVTKSFNRGEC
Turning to B1, the concentration for a half-maximal effect (EC50) was 16.8 to 37.4 nM in the assay with CD3 on Jurkat cells [1], 121 nM in the assay with CD3 on Jurkat cells [2] and 1.7 to 2.8 nM in assay [7]. The equilibrium dissociation constant (Kd) in [3] was around 0.3 nM; in assay [4], 24 to 28 nM; in [5], 25 nM. Also, the “fold higher affinity than to rodent BCMA” value in assay [6] was around 10 fold.

B2: BCMA binder of CC-93269 (anti-BCMA IgG and Fab fragment of clone 83A10-42) (antibody, V domains shown)
VH: EVQLLESGGGLVQPGGSLRLSCAASGFTFSDNAMGWVRQAPGKGLEWVSAISGPGSSTYYADSVKGRFTISRDNSKNTLYLQMNSLRAEDTAVYYCAKVLGWFDYWGQGTLVTVSS
VL: EIVLTQSPGTLSLSPGERATLSCRASQSVSDEYLSWYQQKPGQAPRLLIHSASTRATGIPDRFSGSGSGTDFTLAISRLEPEDFAVYYCQQYGYPPDFTFGQGTKVEIK
Regarding B2, the Kd in assay [8] was 0.431 nM; in assay [6], 0.203 to 0.45 nM. Moreover, the binding result in the assay with mouse BCMA is “binds”.

B3: phycoerythrin (PE)-conjugated BCMA binder (Clone 83A10-42) of CC-93269 (antibody, V domains shown)
VH: EVQLLESGGGLVQPGGSLRLSCAASGFTFSDNAMGWVRQAPGKGLEWVSAISGPGSSTYYADSVKGRFTISRDNSKNTLYLQMNSLRAEDTAVYYCAKVLGWFDYWGQGTLVTVSS
VL: EIVLTQSPGTLSLSPGERATLSCRASQSVSDEYLSWYQQKPGQAPRLLIHSASTRATGIPDRFSGSGSGTDFTLAISRLEPEDFAVYYCQQYGYPPDFTFGQGTKVEIK
modifications: phycoerythrin (PE)-conjugated; site not stated
notes: also called PE-conjugated 83A10-42
Regarding B3, in the assay with BCMA/Fc, the binding result is reported as “binds”.

The EC50 is the concentration needed to bring the measured effect to its halfway point. A high value points to a less potent agent. As usually defined, the Kd is the constant that tells how readily two partners part at equilibrium. Low readings indicate a tighter complex, high ones a looser complex.
